Data on five molecules can be found in patent US5834244, “Factor VIIa inhibitors from Kunitz domain proteins” (Genentech, Inc., dated 1998).

Assay [1] concerns the target TF-FVIIa complex in the PT assay (full length TF on 293 cell membranes with the Factor VII/VIIa of normal … (human, UniProt P08709)). Briefly: cell-based or functional assay.
In assay [2] the target is T1, human Factor XIIa (human, UniProt P00748).
T1 sequence 1: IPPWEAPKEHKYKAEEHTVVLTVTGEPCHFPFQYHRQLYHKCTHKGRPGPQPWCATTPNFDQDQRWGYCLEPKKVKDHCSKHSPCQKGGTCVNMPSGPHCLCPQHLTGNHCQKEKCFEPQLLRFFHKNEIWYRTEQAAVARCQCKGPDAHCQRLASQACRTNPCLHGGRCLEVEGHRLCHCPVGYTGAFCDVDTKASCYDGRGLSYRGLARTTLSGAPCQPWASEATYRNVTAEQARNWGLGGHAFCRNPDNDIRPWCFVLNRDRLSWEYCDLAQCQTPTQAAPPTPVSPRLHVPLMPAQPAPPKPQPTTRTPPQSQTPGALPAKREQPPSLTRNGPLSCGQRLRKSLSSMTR
T1 sequence 2: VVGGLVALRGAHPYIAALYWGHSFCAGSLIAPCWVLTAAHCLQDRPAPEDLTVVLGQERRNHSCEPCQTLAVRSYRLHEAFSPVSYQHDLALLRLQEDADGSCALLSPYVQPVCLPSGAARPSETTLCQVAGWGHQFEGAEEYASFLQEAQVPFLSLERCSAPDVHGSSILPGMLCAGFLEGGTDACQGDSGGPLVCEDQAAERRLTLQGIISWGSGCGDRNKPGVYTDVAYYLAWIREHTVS
Description: chromogenic enzyme inhibition assay, apparent Ki*.

For assay [3], the target named is human thrombin (human, UniProt P00734). Briefly: chromogenic enzyme inhibition assay, apparent Ki*.
In assay [4] the target is human activated protein C (human, UniProt P04070). Briefly: chromogenic enzyme inhibition assay, apparent Ki*.
Assay [5] concerns the target human Factor Xa (human, UniProt P00742). Description: chromogenic enzyme inhibition assay, apparent Ki*.
In assay [6] the target is human plasma kallikrein (human, UniProt P03952). Briefly: chromogenic enzyme inhibition assay, apparent Ki* (value in FIG. 4). On the procedure:
(§1) Aliquots (25 μL) from each well of a microtiter plate containing the serially diluted inhibitors were transferred into new microtiter plates, each containing a different protease (100 μL) in the appropriate buffer. The proteases tested (protease concentration, buffer, substrate) were FVIIa (10 nM, Buffer A, 0.7 mM S2366), FXIa (1.0 nM, Buffer B containing 1 mg/ml BSA, 0.7 mM S2366), plasma kallikrein (3.5 nM, Buffer B, 0.5 mM S2302), and plasmin (15 nM, Buffer B, 1 mM S2251). Buffer A contains 50 mM Tris, pH 7.5, 100 mM NaCl, 10 mM CaCl_2, 0.5% BSA, 60 nM TF_1-243, and 1 mM CHAPS (Sigma). Buffer B contains 50 mM Tris, pH 7.5, 100 mM NaCl, 2 mM CaCl_2 and 0.005% Triton X-100.

Assay [7] concerns the target human plasmin (human, UniProt P00747). Description: chromogenic enzyme inhibition assay (plasmin 15 nM, S2251), apparent Ki*. On the procedure: as §1

Residue numbers refer to the chain shown, from its start. No end group written: not given here.

B1: IV-32B (designed binder)
chain: VREVCSEQAEPGPCKALMKRWYFDVTEGKCAPFYYGGCYGNRNNFDTEEYCAAVCGSA
Turning to B1, the “fold prolongation of clotting time, PT assay in normal human plasma” value (“fold prolongation of clotting time” below) in assay [1] was 1.4 fold prolongation at 40 µM inhibitor.

B2: APPI, Alzheimer's amyloid β-protein precursor inhibitor (other)
chain: VREVCSEQAETGPCRAMISRWYFDVTEGKCAPFFYGGCGGNRNNFDTEEYCMAVCGSA
modifications: not fully specified (bridges); ends and bridges not checked
Consider B2, for which the Ki in assay [2], in assay [3], in assay [4] and in assay [5] was over 10 µM in each case. Besides, the binding result in assay [2], in assay [3], in assay [4] and in assay [5] was “no binding (tested: >10 µM)” each time. Further, the “fold prolongation of clotting time” value in assay [1] was 1.5 fold prolongation at 40 µM inhibitor.

B3: IV-49C (designed binder)
chain: B1 chain with K15R, Y34I
As to B3, in assay [1], the “fold prolongation of clotting time” value is 2.5 fold prolongation at 40 µM inhibitor.

B4: IV-54C (designed binder)
chain: B1 chain with K15R, Y34V
Regarding B4, the “fold prolongation of clotting time” value in assay [1] was 2.1 fold prolongation at 40 µM inhibitor.

B5: TF7I-C (designed binder)
chain: B1 chain with K15R, M18I, K19L, Y34F
modifications: ends and bridges not checked; cysteine pairing not given here
Consider B5, for which the values for the binding result in assay [2], in assay [4] and in assay [6] were “no binding (tested: >10 µM)”, “no binding (tested: >10 µM)” and “binds”, respectively. Further, the Ki in assay [7] stood at 0.04 µM.
